Among the data in patent US20260216326A1 (PROMETHEUS BIOSCIENCES, published 2026) are Kd values, retold here.

Positions count from the first letter of the chain named.

This assay concerns the target T1, human TL1A (Fitzgerald #30R-AT070) (human, UniProt O95150 72-251, limits assumed).
T1 construct: Coated on the ELISA plate at 1 ug/mL; also called TNFSF15
T1 sequence (looked up): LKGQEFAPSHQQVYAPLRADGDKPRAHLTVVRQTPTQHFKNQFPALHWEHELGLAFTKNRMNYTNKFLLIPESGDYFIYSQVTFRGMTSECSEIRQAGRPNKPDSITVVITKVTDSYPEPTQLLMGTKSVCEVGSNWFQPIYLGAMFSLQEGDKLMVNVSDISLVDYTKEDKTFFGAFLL
Description: ELISA titration, coated human TL1A, culture supernatant. For orientation: An ELISA detects its analyte on a solid surface through an enzyme-linked reagent.

B1: A148 (antibody, human IgG1, V domains shown)
VH: QVQLVQSGAEVKKPGASVKVSCKASGFDIQDTYMHWVRQAPGQGLEWMGRIEPASGHIKYDPKFQVRVTMTRDTSTSTVYMELSSLRSEDTAVYYCARSGGLPDWWGQGTTVTVSS
VL: EIVLTQSPGTLSLSPGERATLSCRASSSVSYMYWYQQKPGQAPRPLIYATSNLASGIPDRFSGSGSGTDFTLTISRLEPEDFAVYYCQQWEGNPRTFGGGTKLEIK
notes: human IgG1/kappa (pFuse vectors), culture supernatant
B1: the dissociation constant (Kd) (in general, the free concentration of one partner at which half of the binding sites on the other are occupied at equilibrium, for simple one-to-one binding) was 0.046 nM.

B2: A85 (antibody, human IgG1, V domains shown)
VH: B1 VH with V66G
VL: B1 VL with P45L, I57V
notes: as for B1
Consider B2, for which binding was put at a Kd of 0.13 nM.

B3: A60 (antibody, human IgG1, V domains shown)
VH: B1 VH with E52D, V66G
VL: B1 VL with P45L
notes: as for B1
Molecule B3 came in with a Kd of 0.168 nM. This Kd and that of the molecule before are within 1.5-fold of each other.

B4: A90 (antibody, human IgG1, V domains shown)
VH: B1 VH with V66G
VL: B1 VL with L11M, P45L
notes: as for B1
On to B4, for which the Kd stood at 0.107 nM.

B5: A95 (antibody, human IgG1, V domains shown)
VH: B1 VH with V66G, V68A, M70I, R72T
VL: B1 VL with L46W
notes: as for B1
Regarding B5, binding was characterised by a dissociation constant (Kd) of 0.105 nM.

B6: A61 (antibody, human IgG1, V domains shown)
VH: B1 VH with M48I, V66G
VL: B1 VL with P45L
notes: as for B1
B6: binding was characterised by a dissociation constant (Kd) of 0.127 nM.

B7: A33 (antibody, V domains shown)
VH: B1 VH with Q1D, V66G
VL: B1 VL with P45L
B7 registered a dissociation constant (Kd) of 0.081 nM.

B8: A70 (antibody, human IgG1, V domains shown)
VH: B1 VH with V66G, R72T
VL: B1 VL with P45L
notes: as for B1
The molecule B8 showed a Kd of 0.149 nM. Against the preceding molecule, the Kd is about 1.8-fold higher.

B9: A98 (antibody, human IgG1, V domains shown)
VH: B1 VH with V68A
VL: B1 VL with P45L
notes: as for B1
B9: binding was characterised by a dissociation constant (Kd) of 0.14 nM.

B10: A102 (antibody, human IgG1, V domains shown)
VH: B1 VH with R38K, A40R, M48I, E52D, I58T, M70I, R72T, V79A, M81L, W105V
VL: B1 VL with P45L, E91K
notes: as for B1
B10 had a Kd of 0.104 nM. The Kd values of the last two molecules are within 1.5-fold of each other.

B11: A68 (antibody, human IgG1, V domains shown)
VH: B1 VH with M70I
VL: B1 VL with P45L
notes: as for B1
Turning to B11, the equilibrium dissociation constant (Kd) was determined as 0.074 nM.

B12: A88 (antibody, human IgG1, V domains shown)
VH: B1 VH with V66G
VL: B1 VL with P45L, F70Y, L77V
notes: as for B1
B12: binding was characterised by a dissociation constant (Kd) of 0.081 nM.

B13: A62 (antibody, human IgG1, V domains shown)
VH: B1 VH with M48I, E52D, V66G
VL: B1 VL with P45L
notes: as for B1
With B13, the Kd was determined as 0.15 nM.

B14: A99 (antibody, human IgG1, V domains shown)
VH: B1 VH with M70I
VL: B1 VL with P45L
notes: as for B1
On to B14, for which the affinity, expressed as Kd, was 0.102 nM. This Kd and that of the molecule before are within 1.5-fold of each other.

B15: A31 (antibody, human IgG1, V domains shown)
VH: B1 VH with V66G
VL: B1 VL with L46W
notes: as for B1
Regarding B15, the dissociation constant Kd was determined as 0.092 nM.

B16: A100 (antibody, human IgG1, V domains shown)
VH: B1 VH with A40R, M48I, E52D, I58T, V68A, M70I, R72T, V79A, M81L, W105V
VL: B1 VL with P45L, E91K
notes: as for B1
B16 yielded a dissociation constant (Kd) of 0.084 nM.

B17: A65 (antibody, human IgG1, V domains shown)
VH: B1 VH with V66G, V68A
VL: B1 VL with P45L
notes: as for B1
On to B17, for which the dissociation constant (Kd) is 0.097 nM.

B18: A66 (antibody, human IgG1, V domains shown)
VH: B1 VH with V66G, M70I
VL: B1 VL with P45L
notes: as for B1
B18: the dissociation constant Kd is 0.15 nM.

B19: A97 (antibody, human IgG1, V domains shown)
VH: B1 VH
VL: B1 VL with P45L
notes: as for B1
As to B19, binding was put at a Kd of 0.071 nM.

B20: A32 (antibody, V domains shown)
VH: B1 VH with Q1D, V66G
VL: B1 VL with L46W
In turn, B20 yielded a dissociation constant Kd of 0.111 nM.

B21: A103 (antibody, human IgG1, V domains shown)
VH: B1 VH with R38K, A40R, M48I, E52D, I58T, M70I, V79A, M81L, W105V
VL: B1 VL with P45L, E91K
notes: as for B1
The molecule B21 displayed a Kd of 0.107 nM.

B22: A75 (antibody, human IgG1, V domains shown)
VH: B1 VH with V66G, V68A, M70I, R72T
VL: B1 VL with L46W
notes: as for B1
For the molecule B22, the Kd is 0.259 nM. Against the preceding molecule, the Kd is about 2.4-fold higher.

B23: A86 (antibody, human IgG1, V domains shown)
VH: B1 VH with V66G
VL: B1 VL with P45L, F70Y
notes: as for B1
B23 came in with a dissociation constant Kd of 0.129 nM.

B24: A87 (antibody, human IgG1, V domains shown)
VH: B1 VH with V66G
VL: B1 VL with P45L, L77V
notes: as for B1
The molecule B24 came in with a Kd of 0.121 nM.

B25: A93 (antibody, human IgG1, V domains shown)
VH: B1 VH with V66G, V79A, M81L
VL: B1 VL with P45L
notes: as for B1
Consider B25, for which the equilibrium dissociation constant (Kd) stood at 0.117 nM. This Kd and that of the molecule before are within 1.5-fold of each other.

B26: A94 (antibody, human IgG1, V domains shown)
VH: B1 VH with V68A, M70I
VL: B1 VL with P45L
notes: as for B1
As for B26, the affinity, expressed as Kd, was 0.081 nM.

B27: A67 (antibody, human IgG1, V domains shown)
VH: B1 VH with V68A
VL: B1 VL with P45L
notes: as for B1
On to B27, for which binding was characterised by a dissociation constant (Kd) of 0.089 nM.

B28: A71 (antibody, human IgG1, V domains shown)
VH: B1 VH with V66G, M70I, R72T
VL: B1 VL with P45L
notes: as for B1
On to B28, for which the Kd amounted to 0.15 nM.

B29: A63 (antibody, human IgG1, V domains shown)
VH: B1 VH with I58V, V66G
VL: B1 VL with P45L
notes: as for B1
B29 showed a dissociation constant (Kd) of 0.132 nM.

B30: A59 (antibody, human IgG1, V domains shown)
VH: B1 VH with R38K, A40R, V66G
VL: B1 VL with P45L
notes: as for B1
B30 registered a Kd of 0.136 nM.

B31: A72 (antibody, human IgG1, V domains shown)
VH: B1 VH with V66G, V68A, M70I, R72T
VL: B1 VL with P45L
notes: as for B1
Turning to B31, binding was characterised by a dissociation constant (Kd) of 0.159 nM.

B32: A96 (antibody, human IgG1, V domains shown)
VH: B1 VH with V66G, V68A
VL: B1 VL with L46W
notes: as for B1
On to B32, for which binding was put at a Kd of 0.095 nM.

B33: A69 (antibody, human IgG1, V domains shown)
VH: B1 VH with Q1E, V66G
VL: B1 VL with P45L
notes: as for B1
B33: binding was put at a Kd of 0.136 nM.

B34: A57 (antibody, human IgG1, V domains shown)
VH: B1 VH with A40R, V66G
VL: B1 VL with P45L
notes: as for B1
Take B34: the affinity, expressed as Kd, was 0.191 nM.

B35: A64 (antibody, human IgG1, V domains shown)
VH: B1 VH
VL: B1 VL with P45L
notes: as for B1
B35 gave a dissociation constant (Kd) of 0.09 nM.

B36: A89 (antibody, human IgG1, V domains shown)
VH: B1 VH with V66G
VL: B1 VL with L13A, P45L
notes: as for B1
With B36, the Kd stood at 0.117 nM.

B37: A29 (antibody, human IgG1, V domains shown)
VH: QVQLVQSGAEVKKPGASVKVSCKASGFDIQDTYMHWVKQRPGQGLEWIGRIDPASGHTKYDPKFQVRATITTDTSTSTAYLELSSLRSEDTAVYYCARSGGLPDVWGQGTTVTVSS
VL: B1 VL with L46W
notes: as for B1
As for B37, the dissociation constant (Kd) was 0.065 nM. This Kd lies about 1.8-fold lower than the previous one.

B38: A74 (antibody, human IgG1, V domains shown)
VH: B1 VH with V66G, M70I, R72T
VL: B1 VL with L46W
notes: as for B1
B38 displayed an equilibrium dissociation constant (Kd) of 0.141 nM.

B39: A92 (antibody, human IgG1, V domains shown)
VH: B1 VH with V66G, M81L
VL: B1 VL with P45L
notes: as for B1
For the molecule B39, the Kd is 0.121 nM. This Kd and that of the molecule before are within 1.5-fold of each other.

B40: A101 (antibody, human IgG1, V domains shown)
VH: B37 VH with I48M
VL: B1 VL with P45L, E91K
notes: as for B1
For B40, binding was characterised by a dissociation constant (Kd) of 0.096 nM.

B41: A91 (antibody, human IgG1, V domains shown)
VH: B1 VH with V66G, V79A
VL: B1 VL with P45L
notes: as for B1
On to B41, for which the affinity, expressed as Kd, was 0.132 nM.

B42: A58 (antibody, human IgG1, V domains shown)
VH: B1 VH with R38K, V66G
VL: B1 VL with P45L
notes: as for B1
Molecule B42 gave a Kd of 0.112 nM.

B43: A73 (antibody, human IgG1, V domains shown)
VH: B1 VH with V66G, R72T
VL: B1 VL with L46W
notes: as for B1
In the case of B43, the Kd stood at 0.128 nM.
